In US20250296979A1:

Target: VEGF-C and VEGF-D
Test: ELISA; after storage at -20 C or 5 C for up to 24 months

For OPT-302 (Fc fusion), the decrease of binding activity against initiation of the stability study was 9 to 19%.
